Assays:
[1] = molecular target: Candida albicans ATP-binding cassette transporter CaCdr1p (Candida albicans) (UniProt Q5ANA3)
[2] = molecular target: Candida albicans ATP-binding cassette transporter CaCdr1p (Candida albicans) (UniProt Q5ANA3); remark: listed apart in the source

Chain of Candida albicans ATP-binding cassette transporter CaCdr1p (Candida albicans) (Q5ANA3 whole entry): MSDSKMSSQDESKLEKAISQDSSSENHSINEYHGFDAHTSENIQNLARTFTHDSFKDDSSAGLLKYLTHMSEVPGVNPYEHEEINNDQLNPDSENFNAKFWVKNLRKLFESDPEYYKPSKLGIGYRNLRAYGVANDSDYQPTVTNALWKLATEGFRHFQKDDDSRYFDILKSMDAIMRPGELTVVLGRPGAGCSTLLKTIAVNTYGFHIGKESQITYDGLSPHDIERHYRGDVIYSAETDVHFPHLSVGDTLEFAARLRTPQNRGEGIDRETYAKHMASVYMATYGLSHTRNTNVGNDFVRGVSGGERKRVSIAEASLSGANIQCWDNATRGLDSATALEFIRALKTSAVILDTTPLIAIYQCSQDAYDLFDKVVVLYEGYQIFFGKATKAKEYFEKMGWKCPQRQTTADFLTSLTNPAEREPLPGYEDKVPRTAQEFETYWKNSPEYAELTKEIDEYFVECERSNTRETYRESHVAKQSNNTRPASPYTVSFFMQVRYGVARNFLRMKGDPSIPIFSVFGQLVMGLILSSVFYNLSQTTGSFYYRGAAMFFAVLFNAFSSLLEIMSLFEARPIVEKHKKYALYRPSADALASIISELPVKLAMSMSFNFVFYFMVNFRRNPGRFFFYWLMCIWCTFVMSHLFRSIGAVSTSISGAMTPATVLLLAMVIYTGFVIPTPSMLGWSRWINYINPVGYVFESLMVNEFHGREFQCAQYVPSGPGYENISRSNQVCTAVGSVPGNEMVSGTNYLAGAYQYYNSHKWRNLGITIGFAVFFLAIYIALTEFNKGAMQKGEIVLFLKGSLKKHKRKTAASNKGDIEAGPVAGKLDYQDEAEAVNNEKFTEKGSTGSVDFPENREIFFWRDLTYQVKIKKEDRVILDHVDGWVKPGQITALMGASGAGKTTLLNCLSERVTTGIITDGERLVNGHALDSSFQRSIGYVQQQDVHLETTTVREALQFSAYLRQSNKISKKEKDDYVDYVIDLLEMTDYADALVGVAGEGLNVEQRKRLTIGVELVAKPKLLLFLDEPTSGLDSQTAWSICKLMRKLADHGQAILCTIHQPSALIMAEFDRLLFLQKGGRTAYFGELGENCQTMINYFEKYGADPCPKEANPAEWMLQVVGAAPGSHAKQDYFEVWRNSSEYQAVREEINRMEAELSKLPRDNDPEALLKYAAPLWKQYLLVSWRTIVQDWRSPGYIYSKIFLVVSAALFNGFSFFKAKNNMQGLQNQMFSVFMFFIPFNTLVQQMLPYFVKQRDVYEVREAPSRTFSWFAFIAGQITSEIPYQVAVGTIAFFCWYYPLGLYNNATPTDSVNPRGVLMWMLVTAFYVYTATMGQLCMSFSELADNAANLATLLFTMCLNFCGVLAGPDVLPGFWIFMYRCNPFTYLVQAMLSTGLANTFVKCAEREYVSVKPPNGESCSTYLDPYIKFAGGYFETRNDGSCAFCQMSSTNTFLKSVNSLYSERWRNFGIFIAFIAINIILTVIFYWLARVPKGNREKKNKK

Substance | IC50 of inhibition of the ATPase activity of CaCdr1p [1] [µM] | IC50 of inhibition of the CaCdr1p ATPase activity, plasma membrane preparations [2] [µM]
RC1, naked D-octapeptide D-NH2-FFKWQRRR-CONH2 | > 200 | 
RC21v3, D-NH2-FFKWQR(Mtr)RR-CONH2 (peptide) |  | 1.1

From PMC3418399
